Source: patent publication US20240374748A1 (University of California, published 2024)
Positions count from the first letter of the chain named.

How the values were obtained:
ALPP = target: T1, ALPP (human, UniProt P05187 23-506); experiment: FACS on live ALPP-transfected HEK293 cells
T1 construct: Expressed on transfected HEK293 cells; also called placentally expressed ALPP

ALPPL2 [1] = target: T2, ALPPL2 (human, UniProt P10696 20-503); experiment: FACS on live HEK293 cells transfected with ALPPL2 (GFP+ gated), curve fit of normalized MFI; ALPPL2-transfected HEK293 cells
T2 construct: Expressed from an ALPPL2 plasmid or cDNA on HEK293 cells, and endogenous on tumor cells; also called placentally expressed ALPPL2; membrane ALPPL2
Description: (§1) Cells were incubated with antibody at room temperature for 1h in PBS/0.2% fetal calf serum, washed three times and further incubated with ALEXAFLOU®-647-labeled anti-human secondary antibody. GFP+ cells were gated and analyzed for mean fluorescence intensity (MFI). […] Similar binding results were obtained on ALPP-transfected cells. There is no binding to ALPL-transfected cells.

ALPL = target: T3, ALPL (UniProt P05186 18-501, limits assumed); experiment: FACS on live transfected HEK293 cells, IgG1
T3 construct: whole, on cells; Expressed on ALPL-transfected HEK293 cells; also called tissue-nonspecific, liver/bone/kidney alkaline phosphatase
T3 sequence (looked up): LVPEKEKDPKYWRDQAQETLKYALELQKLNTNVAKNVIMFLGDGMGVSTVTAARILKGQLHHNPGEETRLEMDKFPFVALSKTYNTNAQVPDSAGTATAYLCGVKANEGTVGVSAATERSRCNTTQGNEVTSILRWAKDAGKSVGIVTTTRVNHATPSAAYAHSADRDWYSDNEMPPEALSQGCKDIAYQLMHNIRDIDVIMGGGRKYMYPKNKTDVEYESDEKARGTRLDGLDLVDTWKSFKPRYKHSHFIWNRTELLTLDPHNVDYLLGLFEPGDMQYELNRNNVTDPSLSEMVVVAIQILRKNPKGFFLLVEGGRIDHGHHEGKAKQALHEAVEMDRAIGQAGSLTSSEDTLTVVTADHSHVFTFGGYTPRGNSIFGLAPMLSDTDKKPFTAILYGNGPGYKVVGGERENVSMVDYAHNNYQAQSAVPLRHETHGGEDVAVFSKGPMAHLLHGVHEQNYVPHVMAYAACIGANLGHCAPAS

ALPPL2 [2] = target: T2, ALPPL2; experiment: apparent affinity on tumor cells, IgG1; method and cell line not stated; tumor cells, IgG1 form
ALPPL2 [3] = target: T2, ALPPL2; experiment: FACS on live HEK293 cells transfected with ALPPL2 (GFP+ gated), curve fit of normalized MFI
Description: as §1, with “either ALPL or ALPI-transfected” for “ALPL-transfected”

ALPI = target: T4, ALPI (UniProt P09923 20-503, limits assumed); experiment: FACS on live transfected HEK293 cells, IgG1
T4 construct: whole, on cells; Expressed on ALPI-transfected HEK293 cells; also called intestinal alkaline phosphatase
T4 sequence (looked up): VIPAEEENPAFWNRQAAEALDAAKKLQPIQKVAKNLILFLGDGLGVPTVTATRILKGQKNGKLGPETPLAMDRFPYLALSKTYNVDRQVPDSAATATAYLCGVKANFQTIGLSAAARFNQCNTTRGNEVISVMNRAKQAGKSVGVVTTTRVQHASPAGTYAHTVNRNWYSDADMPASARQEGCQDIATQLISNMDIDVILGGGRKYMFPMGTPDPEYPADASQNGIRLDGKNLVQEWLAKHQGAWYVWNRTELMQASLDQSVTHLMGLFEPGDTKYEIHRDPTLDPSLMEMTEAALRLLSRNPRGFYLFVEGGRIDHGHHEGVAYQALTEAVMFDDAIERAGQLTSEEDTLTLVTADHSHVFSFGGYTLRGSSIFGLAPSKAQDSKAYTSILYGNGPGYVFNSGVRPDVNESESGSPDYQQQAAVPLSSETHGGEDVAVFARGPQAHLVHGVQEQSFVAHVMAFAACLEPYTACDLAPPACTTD

T1 sequence (P05187 23-506 limits assumed): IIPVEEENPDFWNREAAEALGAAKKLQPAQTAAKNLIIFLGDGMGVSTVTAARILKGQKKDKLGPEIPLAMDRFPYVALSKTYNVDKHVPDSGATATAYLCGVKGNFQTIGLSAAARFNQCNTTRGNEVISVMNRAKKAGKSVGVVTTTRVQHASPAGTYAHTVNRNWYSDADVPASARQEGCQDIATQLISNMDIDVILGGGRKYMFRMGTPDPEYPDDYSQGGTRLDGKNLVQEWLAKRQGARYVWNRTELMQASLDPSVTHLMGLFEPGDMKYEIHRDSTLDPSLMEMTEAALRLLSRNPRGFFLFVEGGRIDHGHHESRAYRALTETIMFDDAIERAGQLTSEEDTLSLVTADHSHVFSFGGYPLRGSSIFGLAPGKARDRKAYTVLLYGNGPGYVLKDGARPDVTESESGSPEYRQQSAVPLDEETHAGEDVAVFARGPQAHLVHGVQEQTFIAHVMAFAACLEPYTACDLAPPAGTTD
T2 sequence (P10696 20-503 limits assumed): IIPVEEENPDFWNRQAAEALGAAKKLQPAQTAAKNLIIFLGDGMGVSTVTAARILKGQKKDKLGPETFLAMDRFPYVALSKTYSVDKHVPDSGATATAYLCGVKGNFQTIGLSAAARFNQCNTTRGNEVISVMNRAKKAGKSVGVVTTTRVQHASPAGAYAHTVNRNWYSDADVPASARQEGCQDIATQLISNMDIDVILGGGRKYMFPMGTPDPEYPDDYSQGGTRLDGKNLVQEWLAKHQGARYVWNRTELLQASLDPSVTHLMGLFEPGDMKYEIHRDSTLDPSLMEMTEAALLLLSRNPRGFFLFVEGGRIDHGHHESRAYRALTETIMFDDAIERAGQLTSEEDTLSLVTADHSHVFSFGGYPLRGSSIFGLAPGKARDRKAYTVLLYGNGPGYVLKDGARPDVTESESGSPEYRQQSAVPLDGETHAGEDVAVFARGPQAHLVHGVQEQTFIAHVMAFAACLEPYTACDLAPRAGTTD

B1: M25ADLF IgG1 (antibody, V domains shown)
VH: QVQLQQSGGGLVKPGGSLRLSCAASGFTFSSYDMHWVRQAPGKGLEWVAVISYDGSNKYYADSVKGRFTISRDNSKNTLYLQMDSLRAEDTAVYFCAKEGDSSRWSYDLWGRGTLVTVSS
VL: QSALTQPASVSGSPGQSITISCTGTSSDVGGYNYVSWYQQHPGKAPKVMIYDVTNRPSGVSNRFSGSKSGNTASLTISGLQAEDEADYYCSSYTSTSTFVVFGGGTKLTVLG
notes: Tested as human IgG1; Residue limits are from CLM-00120
In the case of B1, the binding result (ALPP) is reported as “binds”, the Kd (ALPPL2 [1]) is reported as 17 pM and the binding result (ALPL) is reported as “no binding”.

B2: M25FYIA IgG1 (antibody, V domains shown)
VH: B1 VH with D33A, F95Y
VL: QSALTQPASVSGSPGQSITISCTGTSSDVGGYNYVSWYQQHPGKAPKVMIYDVTNRPSGVSNRFSGSKSGNTASLTISGLQAEDEADYYCSSYTIASTLVVFGGGTKLTVL
notes: Tested as human IgG1
With B2 the binding result (ALPP) was “binds”, the Kd (ALPPL2 [1]) was 20.4 pM and the binding result (ALPL) was “no binding”.

B3: M25AD IgG1 (antibody, V domains shown)
VH: B1 VH
VL: B2 VL with I95S, A96T
notes: Tested in its IgG1 form; also called a variant of M25
In the case of B3, the Kd (ALPPL2 [2]) is reported as 28 pM.

B4: M25 IgG1 (antibody, V domains shown)
VH: B1 VH with D33A
VL: B2 VL with I95S, A96T
notes: also called our M25 antibody; our anti-ALPPL2 antibody M25
For B4, the binding result (ALPP) was “binds”, the Kd (ALPPL2 [3]) was 506 pM and the binding result (ALPI) was “no binding”. B4: no binding (ALPL).
